Experimental data reported in patent US20150273076A1, “SP1 POLYPEPTIDES, MODIFIED SP1 POLYPEPTIDES AND USES THEREOF” (Fulcrum SP Ltd., priority 2006, published 2015).
Numbering of substitutions follows the chain as printed. Names may count otherwise.

B1: R23A: SP1 mutant R23A, SEQ ID NO:12 (protein)
chain: MATRTPKLVKHTLLTRFKDEITAEQIDNYINDYTNLLDLIPSMKSFNWGTDLGMESAELNRGYTHAFESTFESKSGLQEYLDSAALAAFAEGFLPTLSQRLVIDYFLY
modifications: Sp1 mutant variant R23A mutated
B2: T34A: SP1 mutant T34A, SEQ ID NO:16 (protein)
chain: B1 chain with A23R, T34A
modifications: Sp1 mutant variant T34A mutated
B3: E68A: SP1 mutant E68A, SEQ ID NO:19 (protein)
chain: B1 chain with A23R, E68A
modifications: Sp1 mutant variant E68A mutated
B4: D38A: SP1 mutant D38A, SEQ ID NO:17 (protein)
chain: B1 chain with A23R, D38A
modifications: Sp1 mutant variant D38A mutated
B5: N31A: SP1 mutant N31A, SEQ ID NO:15 (protein)
chain: B1 chain with A23R, N31A
modifications: Sp1 mutant variant N31A mutated
B6: I30A: SP1 mutant I30A, SEQ ID NO:14 (protein)
chain: B1 chain with A23R, I30A
modifications: Sp1 mutant variant I30A mutated
B7: Y108A: SP1 mutant Y108A, SEQ ID NO:24 (protein)
chain: B1 chain with A23R, Y108A
modifications: Sp1 mutant variant Y108A mutated
B8: 6H2: six histidine N-terminal tagged SP1, SEQ ID NO:7 (protein)
chain: MHHHHHHATRTPKLVKHTLLTRFKDEITREQIDNYINDYTNLLDLIPSMKSFNWGTDLGMESAELNRGYTHAFESTFESKSGLQEYLDSAALAAFAEGFLPTLSQRLVIDYFLY
B9: N31A T34A 6XH2: SP1 mutant N31A T34A 6XH2, SEQ ID NO:30 (protein)
chain: B8 chain with N37A, T40A
modifications: Sp1 mutant variant 6Xhis inserted into position 2, N31A and T34A mutated
B10: D38A S75A 6XH2: SP1 mutant D38A S75A 6XH2, SEQ ID NO:29 (protein)
chain: B8 chain with D38A, D44A, S75A, S81A
modifications: Sp1 mutant variant 6Xhis inserted into position 2, D38A and S75A mutated
B11: F106A 6XH2: SP1 mutant F106A 6XH2, SEQ ID NO:23 (protein)
chain: B8 chain with F112A
modifications: Sp1 mutant variant 6Xhis inserted into position 2 and F106A mutated
B12: Δ2-7 Cys2: SP1 variant Δ2-7 Cys2, SEQ ID NO:9 (protein)
chain: MCLVKHTLLTRFKDEITREQIDNYINDYTNLLDLIPSMKSFNWGTDLGMESAELNRGYTHAFESTFESKSGLQEYLDSAALAAFAEGFLPTLSQRLVIDYFLY
modifications: Sp1 mutant variant Cys inserted into position 2 together with a deletion of amino acid 2-7
B13: 42-6 S73C: SP1 Loop 4 modification, printed 42-6 S73C, SEQ ID NO:21 (protein)
chain: B12 chain with C2K, S68C
modifications: Sp1 mutant variant amino acids 2-6 deleted and S73C mutated
B14: Δ2-6 I40C: SP1 Loop 2 modification Δ2-6 I40C, SEQ ID NO:18 (protein)
chain: B12 chain with C2K, I35C
modifications: Sp1 mutant variant amino acids 2-6 deleted and I40C mutated
B15: Δ2-6 E72C: SP1 Loop 4 modification Δ2-6 E72C, SEQ ID NO:20 (protein)
chain: B12 chain with C2K, E67C
modifications: Sp1 mutant variant amino acids 2-6 deleted and E72C mutated
B16: Δ2-6 L81C: SP1 variant Δ2-6 L81C, external perimeters of the dodecamer ring, SEQ ID NO:22 (protein)
chain: B12 chain with C2K, L76C
modifications: Sp1 mutant variant amino acids 2-6 deleted and L81C mutated
B17: Cys2 K18R Gly19: Insertion of Cys residue in position 2 and of glycine residue in position 19, K18R (Cys2loop1RGd), SEQ ID NO:11 (protein)
chain: MCATRTPKLVKHTLLTRFRGDEITREQIDNYINDYTNLLDLIPSMKSFNWGTDLGMESAELNRGYTHAFESTFESKSGLQEYLDSAALAAFAEGFLPTLSQRLVIDYFLY
modifications: Sp1 mutant variant Cys inserted into position 2, K18R mutated and a Gly inserted into position 19
B18: Δ2-6 His2: SP1 variant Δ2-6 His2, SEQ ID NO:8 (protein)
chain: MHKLVKHTLLTRFKDEITREQIDNYINDYTNLLDLIPSMKSFNWGTDLGMESAELNRGYTHAFESTFESKSGLQEYLDSAALAAFAEGFLPTLSQRLVIDYFLY
modifications: Sp1 mutant variant His inserted into position 2 together with a deletion of amino acid 2-6
B19: D27A: SP1 mutant D27A, SEQ ID NO:13 (protein)
chain: B1 chain with A23R, D27A
modifications: Sp1 mutant variant D27A mutated
B20: S73A S75A 6XH2: SP1 mutant S73A S75A 6XH2, SEQ ID NO:28 (protein)
chain: B8 chain with S79A, S81A
modifications: Sp1 mutant variant 6Xhis inserted into position 2, S73A and S75A mutated
B21: HH2: SP1 N-terminus modification HH2, SEQ ID NO:4 (protein)
chain: MHHATRTPKLVKHTLLTRFKDEITREQIDNYINDYTNLLDLIPSMKSFNWGTDLGMESAELNRGYTHAFESTFESKSGLQEYLDSAALAAFAEGFLPTLSQRLVIDYFLY
modifications: Sp1 mutant variant 2X His inserted into position 2

Assay: Protein melting point by DSC
Format: physicochemical
Details: protein melting point by DSC; in °C (unit assumed)
Protocol: Differential scanning calorimetry study of SP1 indicates in a Tm of 107° C. for SP1. […] Further, folding and refolding of inclusion bodies including insoluble SP1, and the heat stability of the unfolded proteins indicate that the intact monomer, as well as the oligomer, is heat resistant (FIG. 5).
B1 gave a Tm of 108. B2 showed a Tm of 114. For B3, the Tm was 105.8. For B4, the Tm was 113. B5 showed a Tm of 110. Work on B6 yielded a Tm of 98. With B7 the Tm was 68. For B8, the Tm was 109. Molecule B9 has a Tm of 96.6. With B10 the Tm was 112. Work on B11 yielded a Tm of 75.

Assay: Heat stability (no precipitation after heat treatment)
Details: 10 min at 100° C. or 30 min at 85° C.
With B12 the Heat stability was “+”. With B13 the Heat stability was “+”. For B14, the Heat stability was “+”. For B15, the Heat stability was “+”. For B16, the Heat stability was “+”. For B17, the Heat stability was “+”. With B18 the Heat stability was “+”. In the case of B1, the Heat stability is reported as “+”. With B2 the Heat stability was “+”. In the case of B19, the Heat stability is reported as “+”. For B3, the Heat stability was “+”. With B4 the Heat stability was “+”. In the case of B5, the Heat stability is reported as “+”. For B20, the Heat stability was “+”. For B10, the Heat stability was “+”. In the case of B21, the Heat stability is reported as “+”.

Assay: Oligomeric complex formation by SDS PAGE (unboiled samples)
Details: SDS PAGE, samples not boiled in the application buffer
Protocol: SP1 (20 μg) was prepared in SDS sample buffer at different SP1-monomer: SDS molar ratios and boiled (or not) (5 mM) prior to SDS-PAGE analysis. Heat stability of SP1 oligomer (10 μg) was tested in the same buffer at SP1-monomer: SDS=1:1733 and heated for 1 to 10 mM at different temperatures.
Purified 6HSP1 and ΔNSP1 were first denatured to the monomeric forms by boiling the proteins in SDS sample buffer. The denatured proteins were then separated in preparative SDS-PAGE, and visualized by Coomassie blue staining. The monomeric forms of two recombinant protein bands were excised. Gel slices that carried monomeric form of 6HSP1 (SEQ ID NO:7) and ΔNSP1 (SEQ ID NO:2) were mixed at 1:1 ratio (v/v). In order to enhance the surface/volume ratio, the gel slices were pulverized using a pestle and mortar in the presence of liquid nitrogen. […] The hetero-oligomeric complex was isolated by subjecting the eluated protein to Ni-NTA Agarose beads and the bound proteins were eluted by 400 mM imidazole using a standard procedure (Sigma protocol for P 6611). […] The composition of hetero-oligomeric SP1 was determined by SDS-PAGE and visualized by silver staining.
In the case of B13, the “Complex Formation” value is reported as 11. For B15, the “Complex Formation” value was 10.

Same assay, conditions: boiling and protease stability
With B17 the “oligomeric complex formation, stability and resistance” value was “formed a boiling stable and protease resistant dodecamer”.
